Biological target: CD137 on activated CEMT cells (UniProt Q07011)
Assay: Flow cytometry on PMA/ionomycin-activated CEMT cells, protein at 0.48 nM, detection anti-human Fc-FITC; lower panel 'Cell binding - CD137'

MFI: 1.07
Substance: CET (antibody)
